Assay results taken from patent publication US20240288440A1 (MACFARLANE BURNET INSTITUTE FOR MEDICAL RESEARCH AND PUBLIC …, published 2024).

B1: chimeric secretory component (CSC) of the polymeric immunoglobulin receptor (receptor)
chain: QSSLLGPSSIFGPGEVNVLEGDSVSITCYYPTTSVTRHSRKFWCREEESGRCVTLASTGYTSQEYSGRGKLTDFPDKGEFVVTVDQLTQNDSGSYKCGVGVNGRGLDFGVNVLVSQKPELLNDTKVYTVDLGRTVTINCPFKTENAQKRKSLYKQIGLYPVLVIDSSGYVNPNYTGRIRLDIQGTGQLLFSVVINQLRLSDAGQYLCQAGDDSNSNKKNADLQVLKPEPELVYEDLRGSVTFHCALGPEVANVAKFLCRQSSGENCDVVVNTLGKRAPAFEGRILLNPQDKDGSFSVVITGLRKEDAGRYLCGAHSDGQLQEGSPIQAWQLFVNEESTIPRSPTVVKGVAGGSVAVLCPYNRKESKSIKYWCLWEGAQNGRCPLLVDSEGWVKAQYEGRLSLLEEPGNGTFTVILNQLTSRDAGFYWCLTNGDTLWRTTVEIKIIEGEPNLKVPGNVTAVLGETLKVPCHFPCKFSSYEKYWCKWNNTGCQALPSQDEGPSKAFVNCDENSRLVSLTLNLVTRADEGWYWCGVKQGHFYGETAAVYVAVEERKAAGSRDVSLAKADAAPDEKVLDSGFREIENKAIQDPRLFAEEKAVADTRDQADGSRASVDSGSSEEQGGSSRR
notes: also called R/HpIgR; chimeric pIgR; not shown: C-terminal 6 histidine tag
B2: CB6-IgA2 (monomeric chimeric IgA2 of monoclonal antibody CB6) (antibody)
heavy: ASEVQLVESGGGLVQPGGSLRLSCAASGFTVSSNYMSWVRQAPGKGLEWVSVIYSGGSTFYADSVKGRFTISRDNSMNTLFLQMNSLRAEDTAVYYCARVLPMYGDYLDYWGQGTLVTVSSASTKGPSVFPLAPSSKSTSGASPTSPKVFPLSLDSTPQDGNVVVACLVQGFFPQEPLSVTWSESGQNVTARNFPPSQDASGDLYTTSSQLTLPATQCPDGKSVTCHVKHYTNPSQDVTVPCPVPPPPPCCHPRLSLHRPALEDLLLGSEANLTCTLTGLRDASGATFTWTPSSGKSAVQGPPERDLCGCYSVSSVLPGCAQPWNHGETFTCTAAHPELKTPLTANITKSGNTFRPEVHLLPPPSEELALNELVTLTCLARGFSPKDVLVRWLQGSQELPREKYLTWASRQEPSQGTTTFAVTSILRVAAEDWKKGDTFSCMVGHEALPLAFTQKTIDRLAGKPTHVNVSVVMAEVDGTCY
light: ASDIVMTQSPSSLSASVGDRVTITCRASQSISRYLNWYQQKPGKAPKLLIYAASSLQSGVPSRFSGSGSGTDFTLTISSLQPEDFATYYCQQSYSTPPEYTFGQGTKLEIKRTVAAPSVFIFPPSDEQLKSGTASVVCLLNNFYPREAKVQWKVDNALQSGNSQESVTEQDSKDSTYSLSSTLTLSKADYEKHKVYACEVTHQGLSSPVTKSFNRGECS
notes: also called monomeric CB6-IgA2

Tests used:
purified IgM = biological target: T1, purified IgM; assay: pull-down on CSC beads, reducing SDS-PAGE, bands quantitated
T1 construct: also called pentameric IgM

purified IgG = assay: as above
[1] = biological target: B1; assay: lateral flow assay, CSC test line, detection with RBD-biotin/streptavidin gold

Binder | percent bound (purified IgM) | percent bound (purified IgG) | binding result [1]
B1 | ~20% | ~20% | –
B2 | – | – | no binding (tested: 100 µg/ml)
